For orientation: stoichiometry N means the number of molecules, sites or subunits per partner or assembly.

The data set concerns the molecule itself. Nature of the data set: cryo-EM structure; hAE2 in GDN, about 10 mg/mL; samples in KNO3 pH 7.25 to 6.55, Tris-HCl pH 8.32, NaCl, 50 mM NaHCO3, or DIDS with NaHCO3; C2 symmetry (one class C1).

B1: human anion exchanger 2 (AE2), residues 177-1241 (natural protein, UniProt P04920 177-1241, looked up)
chain: LPHQEATPRASKGAQAGTQVEEAEAEAVAVASGTAGGDDGGASGRPLPKAQPGHRSYNLQERRRIGSMTGAEQALLPRVPTDEIEAQTLATADLDLMKSHRFEDVPGVRRHLVRKNAKGSTQSGREGREPGPTPRARPRAPHKPHEVFVELNELLLDKNQEPQWRETARWIKFEEDVEEETERWGKPHVASLSFRSLLELRRTLAHGAVLLDLDQQTLPGVAHQVVEQMVISDQIKAEDRANVLRALLLKHSHPSDEKDFSFPRNISAGSLGSLLGHHHGQGAESDPHVTEPLMGGVPETRLEVERERELPPPAPPAGITRSKSKHELKLLEKIPENAEATVVLVGCVEFLSRPTMAFVRLREAVELDAVLEVPVPVRFLFLLLGPSSANMDYHEIGRSISTLMSDKQFHEAAYLADEREDLLTAINAFLDCSVVLPPSEVQGEELLRSVAHFQRQMLKKREEQGRLLPTGAGLEPKSAQDKALLQMVEAAGAAEDDPLRRTGRPFGGLIRDVRRRYPHYLSDFRDALDPQCLAAVIFIYFAALSPAITFGGLLGEKTQDLIGVSELIMSTALQGVVFCLLGAQPLLVIGFSGPLLVFEEAFFSFCSSNHLEYLVGRVWIGFWLVFLALLMVALEGSFLVRFVSRFTQEIFAFLISLIFIYETFYKLVKIFQEHPLHGCSASNSSEVDGGENMTWAGARPTLGPGNRSLAGQSGQGKPRGQPNTALLSLVLMAGTFFIAFFLRKFKNSRFFPGRIRRVIGDFGVPIAILIMVLVDYSIEDTYTQKLSVPSGFSVTAPEKRGWVINPLGEKSPFPVWMMVASLLPAILVFILIFMETQITTLIISKKERMLQKGSGFHLDLLLIVAMGGICALFGLPWLAAATVRSVTHANALTVMSKAVAPGDKPKIQEVKEQRVTGLLVALLVGLSIVIGDLLRQIPLAVLFGIFLYMGVTSLNGIQFYERLHLLLMPPKHHPDVTYVKKVRTLRMHLFTALQLLCLALLWAVMSTAASLAFPFILILTVPLRMVVLTRIFTDREMKCLDANEAEPVFDEREGVDEYNEMPMPV
notes: Anion exchanger 2 (AE2, SLC4A2), human; A TEV protease site lies between the N-terminal Flag-8xHis tags and AE2; Solubilised in LMNG/CHS/GDN and kept in GDN; Residues 1-319, 433-498, 643-672 and 856-893 are not modelled in the structures; also called hAE2; AE2^177-1241; source: Expi293 cells, transiently transfected, purified (anti-Flag beads, SEC in GDN)
Regarding B1, the “stoichiometry N” value was determined as 2.

The values are drawn from publication PMC10066210, “The structural basis of the pH-homeostasis mediated by the Cl^−/HCO3^− exchanger, AE2” (Nature Communications, 2023).
